Laboratory results taken from article PMC10460880, “Cathepsin K‐Activated Probe for Fluoro‐Photoacoustic Imaging of Early Osteolytic Metastasis” (Advanced Science, 2023).

How the values were obtained:
[1] = target: T1, cathepsin K (CTSK) (Homo sapiens, UniProt P43235); assay: CTSK activation of probe adsorbed on HA; format: biochemical; conditions: probe 10 μM on HA 10 mg/mL (30 min), then CTSK 200 ng/mL, n = 3
T1 sequence (P43235 115-329): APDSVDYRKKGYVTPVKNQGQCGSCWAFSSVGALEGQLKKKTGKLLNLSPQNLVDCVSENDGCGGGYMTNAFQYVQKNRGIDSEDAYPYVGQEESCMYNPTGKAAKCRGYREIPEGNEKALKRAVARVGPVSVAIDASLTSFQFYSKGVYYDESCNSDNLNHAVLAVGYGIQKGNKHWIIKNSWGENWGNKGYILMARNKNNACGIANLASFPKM
Method: In Vitro bone-binding and CTSK activation assay. Hydroxyapatite (HA) was used as a substitute for bone in vitro to evaluate the bone-binding ability of CTSK-APPA and CTSK-APP. CTSK-APPA or CTSK-APP (10 μM) was mildly stirred with HA (10 mg/mL) at 37 °C for different times (0, 10, 30, 60, and 120 min). The mixture was centrifugated at 4000 g for 5 min and then washed with a 10-fold excess of PBS (1×) three times. The efficiency of HA binding was determined from the fluorescence intensities of the precipitation according to the equation: (F – Fblank)/(F0 – Fblank)*100%, where F represents the fluorescence intensity of the precipitation incubated with HA for a determined time, and Fblank represents the blank fluorescence intensity. After verifying the appropriate bone-binding time, CTSK-APPA or CTSK-APP (10 μM) was mixed with HA (10 mg/mL) at 37 °C for 30 min, and then CTSK (200 ng/mL) was added to the corresponding mixture and incubated at 37 °C for another 1 h under mild stirring. The mixture was centrifugated at 4000 g for 5 min and then washed with a 10-fold excess of MES buffer (50 mM, pH 6.0) three times. Fluorescence images were captured by using the IVIS Spectrum imaging system with excitation at 660 ± 10 nm and emission at 710 ± 10 nm. PA images were captured by using a MSOT scanner with excitation at 700 nm. […]

[2] = Bone marrow toxicity analysis (blood RBC and WBC counts); format: in vivo, BALB/c nude mice; conditions: i.v. 50 μM, 200 μL; blood 24 h post-injection; n = 3
Method: Bone marrow toxicity analysis. The bone marrow toxicity of CTSK-APPA and CTSK-APP was assessed by blood analyses in mice. SPF grade 4-week-old BALB/c nude mice were intravenously injected with CTSK-APPA(50 μM, 200 μL) or saline (200 μL). The blood samples were collected in anticoagulant tubes at 24 h post-injection and stored at 4°C. The red blood count (RBC) and white blood count (WBC) were further measured.
Renal clearance efficiency studies. SPF grade 4-week-old BALB/c nude mice were intravenously injected with CTSK-APPA or CTSK-APP (50 μM, 200 μL) and placed in metabolic cages. The urine was collected at 3, 6, and 24 h post-injection, and then centrifuged at 5000 r.p.m. for 5 min. The supernatants containing excreted probes were quantified by using a UV-vis absorption spectrometer. […]
In vivo Bioluminescence, DR, CT, and MR imaging. […] Then BL imaging was recorded on an IVIS Spectrum imaging system at 10 min post-injection under anesthesia using isoflurane. All data were analyzed with the Living Image software. DR, CT, and MR imaging were recorded on an IVIS Spectrum imaging system, a single-photon emission computed tomography imaging system, and a preclinical magnetic resonance solution system, respectively.
Real-time tumor imaging. […] Fluorescence and PA images were acquired at 0, 1, 2, 4, 8, 12, and 24 h post-injection. […]
Histology. […] Images were captured by using a fluorescence microscope. […]

[3] = Fluorescence quantum yield and molar extinction coefficient; format: physicochemical; conditions: MES buffer 50 mM pH 6.0, 0.1% DMSO
Method: Determination of the fluorescence quantum yield and molar extinction coefficient.
Fluorescence quantum yield (Φf) was determined by using ICG (Φf = 0.13 in DMSO) as a fluorescence standard. The quantum yield was calculated using the following equation: ΦF(X) = ΦF(S) (ASFX / AXFS) (nX / nS)2, Where ΦF is the fluorescence quantum yield, A is the absorbance at the excitation wavelength, F is the area under the corrected emission curve, and n is the refractive index of the solvents used. Subscripts S and X refer to the standard and to the unknown, respectively. The excitation wavelength was at 690 nm while keeping the absorption below 0.05. To calculate the molar extinction coefficient (ε), the absorption at 690 nm of different concentrations of the CTSK-APPA before or after CTSK cleavage (0, 0.5, 1, 2, 5, 10 μM) was measured. According to the Lambert-Beer law, the extinction coefficient was the slope of the fitted curve between concentration and absorption. Both fluorescence quantum yield and extinction coefficient were measured in MES buffer (50 mM, pH 6.0) containing 0.1% DMSO. […]

fluorescence on/off ratio of HA-adsorbed probe ([1]; Ex 660 nm, 720 nm): 5.1
enhancement factor for PA signal of HA-adsorbed probe ([1]; Ex 700 nm): approximately 2.8
Substance: Cbz‐Leu‐Arg‐OH [CTSK-APPA]
red blood cell (RBC) and white blood cell (WBC) counts vs saline group [2]: No apparent differences
fluorescence quantum yield (Φf) after CTSK cleavage ([3]; ICG standard, Ex 690 nm): 3.5%
fluorescence quantum yield (Φf) before CTSK cleavage ([3]; ICG standard, Ex 690 nm): 0.5%
molar extinction coefficient ε after CTSK cleavage ([3]; absorption at 690 nm, 0-10 μM): 50230 M⁻¹ cm⁻¹
molar extinction coefficient ε before CTSK cleavage ([3]; absorption at 690 nm, 0-10 μM): 28580 M⁻¹ cm⁻¹
